Experimental data from publication PMC5449630.

How the values were obtained:
[1] = target: CK2-phosphorylated XRCC4(1-238)-LigIV(654-911) complex (UniProt Q13426); assay: SAXS
[2] = target: CK2-phosphorylated XRCC4(1-238)-LigIV(654-911) complex (UniProt Q13426); assay: SEC-MALS

Chain of CK2-phosphorylated XRCC4(1-238)-LigIV(654-911) complex (Q13426 1-238, chain 1 of 2): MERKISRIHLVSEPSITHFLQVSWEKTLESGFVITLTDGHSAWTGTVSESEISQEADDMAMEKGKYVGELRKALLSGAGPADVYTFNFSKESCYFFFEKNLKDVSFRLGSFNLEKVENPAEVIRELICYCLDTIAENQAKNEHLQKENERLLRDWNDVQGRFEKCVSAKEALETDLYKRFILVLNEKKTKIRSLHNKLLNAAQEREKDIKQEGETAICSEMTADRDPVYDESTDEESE
Chain of CK2-phosphorylated XRCC4(1-238)-LigIV(654-911) complex (P49917 654-911, chain 2 of 2, further chain): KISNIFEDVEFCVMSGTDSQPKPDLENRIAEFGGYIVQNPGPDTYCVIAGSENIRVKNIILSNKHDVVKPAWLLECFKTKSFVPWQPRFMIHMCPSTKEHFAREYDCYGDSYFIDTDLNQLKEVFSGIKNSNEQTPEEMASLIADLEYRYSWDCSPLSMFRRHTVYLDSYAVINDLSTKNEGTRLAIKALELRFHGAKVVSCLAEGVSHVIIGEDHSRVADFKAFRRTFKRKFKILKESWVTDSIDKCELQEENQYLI

stoichiometry N (PNKP per pXRCC4 dimer-LigIV complex) [1]: 1
stoichiometry N (PNKP per pXRCC4 dimer-LigIV complex) [2]: 1
Substance: polynucleotide kinase/phosphatase (PNKP), full length, wild type (from UniProt Q96T60 1-521) (enzyme)
